Experimental data taken from patent US20220267415A1 (University of Texas, published 2022).
“And” between values parts separate entries of the source, which are not always exact repeats. Equal values may be shown once. Read-outs that look alike come from different tables or passages of the source.

Legend:
[1] = molecular target: T1, SARS-CoV-2 spike protein, wild type, on live virus (SARS-CoV-2-mNG / USA-WA1/2020) (SARS-CoV-2, UniProt P0DTC2 13-1273); assay: cell-based or functional assay
[2] = molecular target: T1, SARS-CoV-2 spike protein, wild type, on …; assay: cell-based or functional assay; remark: listed apart in the source
[3] = molecular target: T2, recombinant SARS-CoV-2 Receptor Binding Domain (RBD) with a his tag (ATUM, Cat. 65639.1.a) (SARS-CoV-2, UniProt P0DTC2 319-541); assay: ELISA on coated RBD-his
From the text: Plates were then washed 5 times with 0.05% PBS-Tween and blocked with 2% BSA-PBS. […] Luminescent data were collected on an EnVision plate reader (Perkin-Elmer) and analyzed with GraphPad Prism using a 4-parameter logistic model.

[4] = molecular target: T2, recombinant SARS-CoV-2 Receptor Binding …
[5] = molecular target: T1, SARS-CoV-2 spike protein, wild type, on …; assay: cell-based or functional assay; remark: listed apart in the source
[6] = molecular target: T1, SARS-CoV-2 spike protein, wild type, on …; assay: cell-based or functional assay; remark: listed apart in the source
[7] = molecular target: T1, SARS-CoV-2 spike protein, wild type, on …; assay: cell-based or functional assay; remark: listed apart in the source
[8] = molecular target: T1, SARS-CoV-2 spike protein, wild type, on …; assay: cell-based or functional assay; remark: listed apart in the source

B1: anti-SARS-CoV2-06 IgM (lambda-VL-kappa-CL hybrid light chain) (antibody)
VH: QVELQESGPGLVKPSGTLSLTCAVSGGSISSNNWWTWVRQPPGKGLEWIGEIHHSGGTNYNPSLKSRVTMSVDKSKNQFSLNLYSVTAADTAVYYCTRDRAGGTYSGFDFWGQGTLVTVSS
VL: QAVVTQPASVSGSPGQSITISCTGTSSDVGGYNYVSWYQQHPGKAPKLMIYDVSNRPSGVSNRFSGSKSGNTASLTISGLQAEDEADYYCSSYTSSSTVVFGGGTKVTVL
chain: not shown
[1]
  Neutralization EC50: 0.059 µg/mL
[2]
  EC50 (neutralization of live SARS-CoV-2-mNG): 0.06 µg/ml and 0.067 nM
  Fold change of neutralization EC50 in nM (IgM-06 against IgG-06): 14.9 fold
  Fold change of neutralization EC50 in µg/ml (IgM-06 against IgG-06): 2.5 fold

B2: anti-SARS-CoV2-06 IgG (lambda-VL-kappa-CL hybrid light chain) (antibody, V domains shown)
VH: QVELQESGPGLVKPSGTLSLTCAVSGGSISSNNWWTWVRQPPGKGLEWIGEIHHSGGTNYNPSLKSRVTMSVDKSKNQFSLNLYSVTAADTAVYYCTRDRAGGTYSGFDFWGQGTLVTVSS
VL: QAVVTQPASVSGSPGQSITISCTGTSSDVGGYNYVSWYQQHPGKAPKLMIYDVSNRPSGVSNRFSGSKSGNTASLTISGLQAEDEADYYCSSYTSSSTVVFGGGTKVTVL
[1]
  Neutralization EC50: 0.22 µg/mL
[2]
  EC50 (neutralization of live SARS-CoV-2-mNG): 0.15 µg/ml and 1 nM

B3: anti-SARS-CoV2-16 IgM (antibody)
VH: QVQLHQWGAGLLKPSETLSRTCAVYGGSFSGYYWTWIRQAPGKGLEWIGEINHGGSTRYNPSLESRVSISVDTSKKQFSLELRSVTAADTAIYYCARGYDTNWYGDGYNWFDPWDRGTLVTVSS
VL: QAVVTQPPSVSGTPGQRVTISCSGSSSSIGSNTVHWYQHLPGTAPKLLMYNNNERPSGVPARFSGSKSGTSASLVITGLQADDEAEYYCQSYDTGLSGHVFGSGTELTVL
chain: not shown
[3]
  EC50: 300 pM
[4]
  EC50 (read off the curve): ~300 pM

B4: anti-SARS-CoV2-09 IgA2m2 (antibody)
VH: QVQLHQWGAGLLKPSETLSRTCAVYGGSFSGYYWTWIRQAPGKGLEWIGEINHGGSTRYNPSLESRVSISVDTSKKQFSLELRSVTAADTAIYYCARGYDTNWYGDGYNWFDPWDRGTLVTVSS
VL: QSALTQDPSVSVALGQTVRITCQGDSLRGSFASWYRQKPGQAPVLVIFGINNRPSGVPDRFSGSSSGNTASLTITGAQAEDEADYYCNSRESNSNRILFGGGTKVTVL
chain: not shown
[3]
  EC50: 1400 pM

B5: anti-SARS-CoV2-16 IgA1 (antibody)
VH: QVQLHQWGAGLLKPSETLSRTCAVYGGSFSGYYWTWIRQAPGKGLEWIGEINHGGSTRYNPSLESRVSISVDTSKKQFSLELRSVTAADTAIYYCARGYDTNWYGDGYNWFDPWDRGTLVTVSS
VL: QAVVTQPPSVSGTPGQRVTISCSGSSSSIGSNTVHWYQHLPGTAPKLLMYNNNERPSGVPARFSGSKSGTSASLVITGLQADDEAEYYCQSYDTGLSGHVFGSGTELTVL
chain: not shown
[3]
  EC50: 600 pM
[4]
  EC50 (read off the curve): ~500 pM

B6: anti-SARS-CoV2-09 IgA1 (antibody)
VH: QVQLHQWGAGLLKPSETLSRTCAVYGGSFSGYYWTWIRQAPGKGLEWIGEINHGGSTRYNPSLESRVSISVDTSKKQFSLELRSVTAADTAIYYCARGYDTNWYGDGYNWFDPWDRGTLVTVSS
VL: QSALTQDPSVSVALGQTVRITCQGDSLRGSFASWYRQKPGQAPVLVIFGINNRPSGVPDRFSGSSSGNTASLTITGAQAEDEADYYCNSRESNSNRILFGGGTKVTVL
chain: not shown
[3]
  EC50: 1000 pM

B7: anti-SARS-CoV2-16 IgA2m2 (antibody)
VH: QVQLHQWGAGLLKPSETLSRTCAVYGGSFSGYYWTWIRQAPGKGLEWIGEINHGGSTRYNPSLESRVSISVDTSKKQFSLELRSVTAADTAIYYCARGYDTNWYGDGYNWFDPWDRGTLVTVSS
VL: QAVVTQPPSVSGTPGQRVTISCSGSSSSIGSNTVHWYQHLPGTAPKLLMYNNNERPSGVPARFSGSKSGTSASLVITGLQADDEAEYYCQSYDTGLSGHVFGSGTELTVL
chain: not shown
[3]
  EC50: 600 pM
[4]
  EC50 (read off the curve): ~600 pM

B8: anti-SARS-CoV2-26 IgA1 (antibody)
VH: not shown
VL: QSALTQPPSASGTPGQRVTISCSGSSSNIGSNSVNWYQQVPGTAPKLLIYANDHRPSGVPDRFSGSKSGTSASLAISGLQSEDEADYYCAAWDNSLKGVVFGGGTKVTVL
chain: not shown
[3]
  EC50: 1800 pM

B9: anti-SARS-CoV2-26 IgA2m2 (antibody)
VH: not shown
VL: QSALTQPPSASGTPGQRVTISCSGSSSNIGSNSVNWYQQVPGTAPKLLIYANDHRPSGVPDRFSGSKSGTSASLAISGLQSEDEADYYCAAWDNSLKGVVFGGGTKVTVL
chain: not shown
[3]
  EC50: 38000 pM

B10: anti-SARS-CoV2-14 IgM (full lambda light chain) (antibody)
heavy: EVQLQQSGPGLVKPSQTLSLTCAISGDSVSSNSAAWNWIRQSPSRGLEWLGRTYYRSKWYNDYAVSVKSRITINPDTSKNQFSLQLNSVTPEDTAVYYCAREEQQLVHDYYYYGMDVWGQGTMVTVSSGSASAPTLFPLVSCENSPSDTSSVAVGCLAQDFLPDSITFSWKYKNNSDISSTRGFPSVLRGGKYAATSQVLLPSKDVMQGTDEHVVCKVQHPNGNKEKNVPLPVIAELPPKVSVFVPPRDGFFGNPRKSKLICQATGFSPRQIQVSWLREGKQVGSGVTTDQVQAEAKESGPTTYKVTSTLTIKESDWLSQSMFTCRVDHRGLTFQQNASSMCVPDQDTAIRVFAIPPSFASIFLTKSTKLTCLVTDLTTYDSVTISWTRQNGEAVKTHTNISESHPNATFSAVGEASICEDDWNSGERFTCTVTHTDLPSPLKQTISRPKGVALHRPDVYLLPPAREQLNLRESATITCLVTGFSPADVFVQWMQRGQPLSPEKYVTSAPMPEPQAPGRYFAHSILTVSEEEWNTGETYTCVVAHEALPNRVTERTVDKSTGKPTLYNVSLVMSDTAGTCY
light: QAVVTQPASVSGSPGQSITISCTGTSSDIGAYNYISWYQQHPGKAPKLIIYEVSNRPSGISYRFSGSKSGNTASLTISGLQAEDEANYYCSSYAGSISFGGGTKVTVLGQPKAAPSVTLFPPSSEELQANKATLVCLISDFYPGAVTVAWKADSSPVKAGVETTTPSKQSNNKYAASSYLSLTPEQWKSHRSYSCQVTHEGSTVEKTVAPTECS
chain: not shown
[5]
  Fold-Increase in potency of IgM over IgG: 46 fold
  Neutralization EC50 (PRNT): 0.011 µg/mL
[6]
  Neutralization EC50: 0.0046 µg/mL
[7]
  Fold-Increase in potency of IgM over IgG: 61 fold
  Neutralization EC50 (PRNT): 0.0052 µg/mL

B11: anti-SARS-CoV2-14 IgG (lambda-VL-kappa-CL hybrid light chain) (antibody, V domains shown)
VH: EVQLQQSGPGLVKPSQTLSLTCAISGDSVSSNSAAWNWIRQSPSRGLEWLGRTYYRSKWYNDYAVSVKSRITINPDTSKNQFSLQLNSVTPEDTAVYYCAREEQQLVHDYYYYGMDVWGQGTMVTVSS
VL: QAVVTQPASVSGSPGQSITISCTGTSSDIGAYNYISWYQQHPGKAPKLIIYEVSNRPSGISYRFSGSKSGNTASLTISGLQAEDEANYYCSSYAGSISFGGGTKVTVL
[1]
  Neutralization EC50: 0.39 µg/mL
[8]
  EC50 (neutralization of live SARS-CoV-2-mNG): 2.6 nM and 0.39 µg/ml

B12: anti-SARS-CoV2-14 IgG (full lambda light chain) (antibody, V domains shown)
VH: EVQLQQSGPGLVKPSQTLSLTCAISGDSVSSNSAAWNWIRQSPSRGLEWLGRTYYRSKWYNDYAVSVKSRITINPDTSKNQFSLQLNSVTPEDTAVYYCAREEQQLVHDYYYYGMDVWGQGTMVTVSS
VL: QAVVTQPASVSGSPGQSITISCTGTSSDIGAYNYISWYQQHPGKAPKLIIYEVSNRPSGISYRFSGSKSGNTASLTISGLQAEDEANYYCSSYAGSISFGGGTKVTVL
[5]
  Neutralization EC50 (PRNT): 0.51 µg/mL
[6]
  Neutralization EC50: 0.6 µg/mL
[7]
  Neutralization EC50 (PRNT): 0.32 µg/mL

B13: anti-SARS-CoV2-14 IgA1 (antibody)
VH: EVQLQQSGPGLVKPSQTLSLTCAISGDSVSSNSAAWNWIRQSPSRGLEWLGRTYYRSKWYNDYAVSVKSRITINPDTSKNQFSLQLNSVTPEDTAVYYCAREEQQLVHDYYYYGMDVWGQGTMVTVSS
VL: QAVVTQPASVSGSPGQSITISCTGTSSDIGAYNYISWYQQHPGKAPKLIIYEVSNRPSGISYRFSGSKSGNTASLTISGLQAEDEANYYCSSYAGSISFGGGTKVTVL
chain: not shown
[3]
  EC50: 1900 pM

B14: anti-SARS-CoV2-14 IgA2m2 (antibody)
VH: EVQLQQSGPGLVKPSQTLSLTCAISGDSVSSNSAAWNWIRQSPSRGLEWLGRTYYRSKWYNDYAVSVKSRITINPDTSKNQFSLQLNSVTPEDTAVYYCAREEQQLVHDYYYYGMDVWGQGTMVTVSS
VL: QAVVTQPASVSGSPGQSITISCTGTSSDIGAYNYISWYQQHPGKAPKLIIYEVSNRPSGISYRFSGSKSGNTASLTISGLQAEDEANYYCSSYAGSISFGGGTKVTVL
chain: not shown
[3]
  EC50: 14000 pM
